Source: paper PMC10427004, “Restoration of energy homeostasis under oxidative stress: Duo synergistic AMPK pathways regulating arginine kinases” (PLOS Genetics, 2023)

Columns and labels:
[1] = tested on: Nc1ncnc2c1ncn2[C@@H]1O[C@H](COP(=O)(O)OP(=O)(O)OP(=O)(O)O)[C@@H](O)[C@H]1O; test: pyruvate kinase / lactate dehydrogenase coupled assay, A340, Lineweaver-Burk; assay type: biochemical, Tribolium castaneum; conditions: 5 mM L-arginine, 20 mM MgCl2, pH 7.5, 30 °C
[2] = tested on: Nc1ncnc2c1ncn2[C@@H]1O[C@H](COP(=O)(O)OP(=O)(O)O)[C@@H](O)[C@H]1O; test: hexokinase / glucose-6-phosphate dehydrogenase coupled assay, A340, Lineweaver-Burk; assay type: biochemical, Tribolium castaneum; conditions: 5 mM phospho-L-arginine, 20 mM MgCl2, pH 7.5, 30 °C

Row | Substance | Km [1] [mM] | Km [2] [mM]
1 | 6×His-TcAK1 (Tribolium castaneum; S129D) | 4.5 | 19.4
2 | 6×His-TcAK1 (Tribolium castaneum; T247D) | 13.0 | 10.6
